From paper doi:10.1101/2020.08.13.249979 (bioRxiv, 2020)
Positions count from the first letter of the chain named. Numbers in names are those of the source. Where “and” joins values, the source holds several entries; their conditions need not be identical. Identical values can stand only once.

Legend:
cryo-EM structure = target: the molecule itself; assay: cryo-EM structure
negative stain EM = target: the molecule itself; assay: negative stain EM
cross-linking = target: the molecule itself; assay: cross-linking

B1: Vipp1/IM30 from Nostoc punctiforme, full-length (amino acids 1-258) (natural protein)
chain: MGLFDRIKRVVSSNLNDLVNKAEDPEKMLEQAILEMQEDLVQLRQGVAQAIAAQKRSEKQYNDAQNEINKWQRNAQLALQKGDENLARQALERKKTYTDTSAALKASLDTQSTQVETLKRNLIQLESKISEAKTKKEMLKARITTAKAQEQLQGMVRGMNTSSAMSAFERMEEKVLMQESRAQALGELAGADLETQFAQLEGGSDVDDELAALKAQMLPPATPVTQAQLPPQQETTPAKSNEVVDAELDSLRKQLDQL
cryo-EM structure
  stoichiometry N: 84 subunits and 55 subunits to 119 subunits (2×)

B2: Vipp1Δα6_(1-219) (domain or fragment)
chain: MGLFDRIKRVVSSNLNDLVNKAEDPEKMLEQAILEMQEDLVQLRQGVAQAIAAQKRSEKQYNDAQNEINKWQRNAQLALQKGDENLARQALERKKTYTDTSAALKASLDTQSTQVETLKRNLIQLESKISEAKTKKEMLKARITTAKAQEQLQGMVRGMNTSSAMSAFERMEEKVLMQESRAQALGELAGADLETQFAQLEGGSDVDDELAALKAQMLP
Negative stain EM
  binding result: binds

B3: Vipp1_(L86C/L193C) (natural protein)
chain: B1 chain with L86C, L193C
cross-linking
  binding result: binds
